According to the RNAGym collection of RNA variant scans (doi:10.1073/pnas.2313332121):
Fewer inactive variants are shown than the library holds.

B1: TPR 5TU (parent)
chain: GGAUCUUCUCGAUCUAACAAAAAAGACAAAUCUGCCACAAAGCUUGAGAGCAUCUUCGGAUGCAGAGGCGGCAGCCUUCGGUGGCGCGAUAGCGCCAACGUUCUCAACUAUGACACGCAAAACGCGUGCUCCGUUGAAUGGAGUUUAUCAUG

Variants of: B1
Assay: polymerase ribozyme fitness, log enrichment relative to wild type (log ratio); higher = more active; in vitro selection for triplet polymerase activity
In short: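 Mutant libraries of each subunit of a heterodimeric triplet polymerase ribozyme were built by PCR and transcribed. Each library went through one round of in vitro selection in triplicate: annealing with biotinylated primer, partner subunit and triplets, frozen incubation at −7 °C, gel excision of extended constructs, streptavidin-bead capture and RT-PCR. Input and output libraries were Illumina-sequenced; only genotypes with ≥10 input reads and ≥1 read per output were kept. Fitness is log2(genotype enrichment/wild-type enrichment), using inverse-variance-weighted replicate averages.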
In the case of A52C C96A C118G C125A, the “polymerase ribozyme fitness (log ratio)” value is reported as -2.23. For A21G C93A C103U, the “polymerase ribozyme fitness (log ratio)” value was -1.75. For A22C C76A G128U C129U, the “polymerase ribozyme fitness (log ratio)” value was no more than -4.2. In the case of U13G A52C C85G G86U C129G, the “polymerase ribozyme fitness (log ratio)” value is reported as no more than -4.2. In the case of C54U U82G, the “polymerase ribozyme fitness (log ratio)” value is reported as 0.0533. With C10U A28U A52G U56A A73C C93U U145C C149G the “polymerase ribozyme fitness (log ratio)” value was no more than -4.2. For A49G A66G G71C C87G C95G A120G G124C A142U, the “polymerase ribozyme fitness (log ratio)” value was no more than -4.2. With A121C the “polymerase ribozyme fitness (log ratio)” value was 0.117. With C14A G58C the “polymerase ribozyme fitness (log ratio)” value was -1.28. In the case of A12U U109G, the “polymerase ribozyme fitness (log ratio)” value is reported as -2.25. In the case of U13G C76A, the “polymerase ribozyme fitness (log ratio)” value is reported as -2.11. In the case of U102G A142U, the “polymerase ribozyme fitness (log ratio)” value is reported as -3.35. In the case of A28U C36G C85G G94A C131G, the “polymerase ribozyme fitness (log ratio)” value is reported as no more than -4.2. With A22U A39C U61A C72U C85G G141A the “polymerase ribozyme fitness (log ratio)” value was no more than -4.2. For U53G C125U, the “polymerase ribozyme fitness (log ratio)” value was -1.66. In the case of G67A C99U A107U G143C, the “polymerase ribozyme fitness (log ratio)” value is reported as no more than -4.2. In the case of C43U C93G U109G, the “polymerase ribozyme fitness (log ratio)” value is reported as no more than -4.2. With C36A C85U A98G C125A the “polymerase ribozyme fitness (log ratio)” value was no more than -4.2. In the case of U7A C10G C32A U33A G50C G83U A91G U102C, the “polymerase ribozyme fitness (log ratio)” value is reported as no more than -4.2. With U55A G67C C85A G86U G124U the “polymerase ribozyme fitness (log ratio)” value was no more than -4.2. For C54A G59U A60C G83A C116A, the “polymerase ribozyme fitness (log ratio)” value was -2.11. With A30C C87G U101C the “polymerase ribozyme fitness (log ratio)” value was no more than -4.2. In the case of U13G C79A C103U, the “polymerase ribozyme fitness (log ratio)” value is reported as no more than -4.2. For A30G A60U C85A C95A C96A C125U A150C, the “polymerase ribozyme fitness (log ratio)” value was no more than -4.2. For G80A C96G, the “polymerase ribozyme fitness (log ratio)” value was -1.11. For C72G C93G C95U C118G A138C U145A, the “polymerase ribozyme fitness (log ratio)” value was no more than -4.2. For A60G C114U, the “polymerase ribozyme fitness (log ratio)” value was -1.83. In the case of C35A A60C A97G U145G, the “polymerase ribozyme fitness (log ratio)” value is reported as no more than -4.2. With A3G C27U G50A C51U C85A G140U the “polymerase ribozyme fitness (log ratio)” value was no more than -4.2. With C5U C10G C35U C75G U102G A107U C118A the “polymerase ribozyme fitness (log ratio)” value was no more than -4.2. With C8A A20U G42C C43G U44A A113U A142C the “polymerase ribozyme fitness (log ratio)” value was no more than -4.2. In the case of A21C A23G C85G G141C, the “polymerase ribozyme fitness (log ratio)” value is reported as -3.89. For A19U G83U, the “polymerase ribozyme fitness (log ratio)” value was -0.798. For A19C G80A C85G, the “polymerase ribozyme fitness (log ratio)” value was -0.89. In the case of C57U A66G, the “polymerase ribozyme fitness (log ratio)” value is reported as -3.4. In the case of C43A G50A A106G, the “polymerase ribozyme fitness (log ratio)” value is reported as no more than -4.2. For U109G A110C, the “polymerase ribozyme fitness (log ratio)” value was no more than -4.2. With A19G G59U C85U C95A the “polymerase ribozyme fitness (log ratio)” value was -1.78. For U55G G92C, the “polymerase ribozyme fitness (log ratio)” value was -0.157. In the case of C8U C27U A37C U55A C87G U111A C118G G124A, the “polymerase ribozyme fitness (log ratio)” value is reported as no more than -4.2. With C108U G133U the “polymerase ribozyme fitness (log ratio)” value was -3.96. In the case of C57A C129U G141A, the “polymerase ribozyme fitness (log ratio)” value is reported as no more than -4.2. For A17U A22U U44A G83C C131U, the “polymerase ribozyme fitness (log ratio)” value was no more than -4.2. For C10U U45G A60C C85U, the “polymerase ribozyme fitness (log ratio)” value was no more than -4.2. In the case of C35A G70A C79U G81A, the “polymerase ribozyme fitness (log ratio)” value is reported as no more than -4.2. With U53G A73G C85U G126U the “polymerase ribozyme fitness (log ratio)” value was -2.37. In the case of U53G A137G, the “polymerase ribozyme fitness (log ratio)” value is reported as -2.32. With C14G A37U G86U A89U A119U C132G the “polymerase ribozyme fitness (log ratio)” value was no more than -4.2. With C32G G59C U61A U82A G84U U134G G140C the “polymerase ribozyme fitness (log ratio)” value was no more than -4.2. For A12U C14G A29C C32U U45A G80C, the “polymerase ribozyme fitness (log ratio)” value was no more than -4.2. In the case of A20G C38A C95U C125U G140C, the “polymerase ribozyme fitness (log ratio)” value is reported as no more than -4.2. In the case of G34A A60G G94A A147G A150C, the “polymerase ribozyme fitness (log ratio)” value is reported as no more than -4.2. For A17G U109G G140U, the “polymerase ribozyme fitness (log ratio)” value was -3.77. For C5U G141C, the “polymerase ribozyme fitness (log ratio)” value was -0.459. With G117U the “polymerase ribozyme fitness (log ratio)” value was -0.0156. For A115G U146A, the “polymerase ribozyme fitness (log ratio)” value was -1.38. In the case of C14A A20U A21U U102G, the “polymerase ribozyme fitness (log ratio)” value is reported as no more than -4.2. In the case of U31G A52C G83A, the “polymerase ribozyme fitness (log ratio)” value is reported as -2.81. With C14G C57U the “polymerase ribozyme fitness (log ratio)” value was -2.06. In the case of C10G A52G C54U G58C C79A C95U, the “polymerase ribozyme fitness (log ratio)” value is reported as -3.91. In the case of U15G A17G C27G A39G, the “polymerase ribozyme fitness (log ratio)” value is reported as no more than -4.2. With C10U C54A C69U C75U C87A the “polymerase ribozyme fitness (log ratio)” value was no more than -4.2. In the case of U6G C95U C96G, the “polymerase ribozyme fitness (log ratio)” value is reported as -0.705. With C14U G94A G136U the “polymerase ribozyme fitness (log ratio)” value was -3.85. In the case of A98U U134G, the “polymerase ribozyme fitness (log ratio)” value is reported as -2.65. With C87U G124A the “polymerase ribozyme fitness (log ratio)” value was -0.0826. For U44G A73U C85A C99U A142C, the “polymerase ribozyme fitness (log ratio)” value was no more than -4.2. With G59C C87U U102G C132U U145G the “polymerase ribozyme fitness (log ratio)” value was no more than -4.2. With C93A U102A A137C the “polymerase ribozyme fitness (log ratio)” value was no more than -4.2. With C96A G140U the “polymerase ribozyme fitness (log ratio)” value was -3.47. In the case of C5G A21C A29U U82A G94A G136C U151C, the “polymerase ribozyme fitness (log ratio)” value is reported as no more than -4.2. In the case of A52C, the “polymerase ribozyme fitness (log ratio)” value is reported as -0.883. With A3G U33C G58C C116G U139A G141U U146C the “polymerase ribozyme fitness (log ratio)” value was no more than -4.2. For U55A U56A C69U C79U G86A A91U A106C A121G C125U A142C, the “polymerase ribozyme fitness (log ratio)” value was no more than -4.2. With A73G G141A the “polymerase ribozyme fitness (log ratio)” value was -0.252. In the case of C18G G50U G88A, the “polymerase ribozyme fitness (log ratio)” value is reported as -4.08. In the case of U56A C69A, the “polymerase ribozyme fitness (log ratio)” value is reported as -1.46. For A26U G46U G58A A73U C85G U111G, the “polymerase ribozyme fitness (log ratio)” value was no more than -4.2. For A37G U56A A97G, the “polymerase ribozyme fitness (log ratio)” value was -2.85. In the case of G88U G124A G128U U135C, the “polymerase ribozyme fitness (log ratio)” value is reported as no more than -4.2. For A17U A20C A26C C93U C131U, the “polymerase ribozyme fitness (log ratio)” value was -2.3. For U4G A73C G92C, the “polymerase ribozyme fitness (log ratio)” value was -4.15. In the case of A12U U111C, the “polymerase ribozyme fitness (log ratio)” value is reported as -4.
